Experimental data as given in US20160017016A1 (AstraZeneca / MedImmune, published 2016).
*1 amine or outer side, *2 acyl side, *3 side chain or, on linkers, in order; H or OH if unused. Primed or numbered codes have the meaning given here. Where no end group is shown, it is not given here. Side-chain parts run from the residue outwards. [ ]: non-standard residue; d: D form. The star is where a group is joined. PEG4′ = 4 PEG units (K(PEGxpalm): Lys with x PEG units and palmitoyl at epsilon N, C-terminal (PEG)4); γGlu = O=C(O)[C@H](CCC(=O)[*:2])N[*:1]; Palmitoyl = CCCCCCCCCCCCCCCC(=O)*; PEG12′ = not defined here

target: human glucagon receptor (GCGR) (human, UniProt P47871 26-477); test: cell-based or functional assay
Sequence (P47871 26-477): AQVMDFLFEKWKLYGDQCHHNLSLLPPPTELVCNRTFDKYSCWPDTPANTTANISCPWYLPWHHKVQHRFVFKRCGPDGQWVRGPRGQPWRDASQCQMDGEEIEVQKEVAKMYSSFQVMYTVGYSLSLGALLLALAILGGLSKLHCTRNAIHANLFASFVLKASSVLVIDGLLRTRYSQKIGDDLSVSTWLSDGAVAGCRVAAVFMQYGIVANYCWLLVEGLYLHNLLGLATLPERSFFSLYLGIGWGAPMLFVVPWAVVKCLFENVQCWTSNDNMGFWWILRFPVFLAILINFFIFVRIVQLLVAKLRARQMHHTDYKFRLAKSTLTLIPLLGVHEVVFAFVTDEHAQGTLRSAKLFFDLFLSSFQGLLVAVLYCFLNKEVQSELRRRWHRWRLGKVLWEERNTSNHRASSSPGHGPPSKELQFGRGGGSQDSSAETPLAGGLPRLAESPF

Binder	cAMP activity, Glcg EC50 nM
HSQGTFTSDYSKYLDSRK([γGlu-Palmitoyl])AQDFVQWLE[PEG4′] [g454]	0.08 nM
HSQGTFTSDYSKYLDK([PEG4′-Palmitoyl])RRAQDFVQWLE[PEG4′] [g495]	0.002 nM
HSQGTFTSDYSKYLDSXRAQDFVQWLE (not fully specified; K(PEG4-palm) at 17; C-terminal PEG4) [g429]	0.005 nM
HSQGTFTSDYSKYLDSXRAQDFVQWLE (K(PEG3-palm) at 17; C-terminal PEG4) [g503]	0.002 nM
HSQGTFTSDYSKYLDSXRAQDFVQWLE (K(PEG2-palm) at 17; C-terminal PEG4) [g502]	0.001 nM
HSQGTFTSDYSKYLDSRRAQDFVQWLV (C-terminal 6-aminohexanoic acid (Ahx)) [g357]	0.08 nM
HGQGTFTSDYSKYK([γGlu-Palmitoyl])DSRRAQDFVQWLV[PEG4′] [g514]	0.02 nM
HSEGTFTSDYSKYK([γGlu-Palmitoyl])DSRRAQDFVQWLV[PEG4′] [g515]	0.4 nM
HSQGTFTSDYSKYLDK([γGlu-Palmitoyl])RRAQDFVQWLV[PEG4′] [g424]	0.009 nM
HSQGTFTSDYSKYLDSRK([γGlu-Palmitoyl])AQDFVQWLV[PEG4′] [g422]	0.7 nM
HGQGTFTSDYSKYLDSEK([γGlu-Palmitoyl])ARDFVAWLV[PEG4′] [g735]	> 1800 nM
HSQGTFTSDYSKYLDSRRAQDFVQWLV (C-terminal 11-aminoundecanoic acid (Aud)) [g358]	0.03 nM
HSQGTFTSDYSXYLDSRRAQDFVQWLV (not fully specified; K(PEG4-palm) at 12; C-terminal PEG4) [g417]	0.003 nM
HSQGTFTSDYSKYKDSRRAQDFVQWLV[PEG4′] (not fully specified (residue 14); printed as HSQGTFTSDYSKYB1DSRRAQDFVQWLVZ4) [g427]	0.002 nM
HSQGTFTSDYSKYLDKRRAQDFVQWLV[PEG4′] (not fully specified (residue 16); printed as HSQGTFTSDYSKYLDB1RRAQDFVQWLVZ4) [g425]	0.002 nM
HSQGTFTSDYSKYLDK([PEG4′-Palmitoyl])SRARDFVAWLV[PEG4′] [g972]	0.03 nM
HSQGTFTSDYSKYLDSRKAQDFVQWLV[PEG4′] (not fully specified (residue 18); printed as HSQGTFTSDYSKYLDSRB1AQDFVQWLVZ4) [g423]	0.004 nM
HSQGTFTSDYSKYLDSRRAXDFVQWLV (K(PEG4-palm) at 20; C-terminal PEG4) [g457]	0.004 nM
HSQGTFTSDYSKYLDSK([γGlu-Palmitoyl])RAQRDFVAWLV[PEG12′] (not fully specified; printed as HSQGTFTSDYSKYLDSBRAQRDFVAWLVZ12) [g828]	0.02 nM
HSQGTFTSDYSRYLDSK([γGlu-Palmitoyl])RARDFVAWLV[PEG4′] [g827]	0.04 nM
HGQGTFTSDYSKYLESK([γGlu-Palmitoyl])RAQDFVQWLV[PEG4′] [g498]	2 nM
HGQGTFTSDYSEYLDSK([γGlu-Palmitoyl])RAQDFVQWLV[PEG4′] [g695]	4 nM
HGQGTFTSDYSKYLDSK([γGlu-Palmitoyl])RAEDFVQWLV[PEG4′] [g693]	> 2 nM
HGQGTFTSDYSKYLDSK([γGlu-Palmitoyl])RAQDFVEWLV[PEG4′] [g694]	0.2 nM

target: human GLP-1 receptor (GLP-1R) (human, UniProt P43220 24-463); test: cell-based or functional assay

Binder	cAMP activity, GLP1 EC50 nM
HSQGTFTSDYSKYLDSRK([γGlu-Palmitoyl])AQDFVQWLE[PEG4′] [g454]	0.5 nM
HSQGTFTSDYSKYLDK([PEG4′-Palmitoyl])RRAQDFVQWLE[PEG4′] [g495]	0.09 nM
HSQGTFTSDYSKYLDSXRAQDFVQWLE (not fully specified; K(PEG4-palm) at 17; C-terminal PEG4) [g429]	0.004 nM
HSQGTFTSDYSKYLDSXRAQDFVQWLE (K(PEG3-palm) at 17; C-terminal PEG4) [g503]	0.02 nM
HSQGTFTSDYSKYLDSXRAQDFVQWLE (K(PEG2-palm) at 17; C-terminal PEG4) [g502]	0.03 nM
HSQGTFTSDYSKYLDSRRAQDFVQWLV (C-terminal 6-aminohexanoic acid (Ahx)) [g357]	1.6 nM
HGQGTFTSDYSKYK([γGlu-Palmitoyl])DSRRAQDFVQWLV[PEG4′] [g514]	0.1 nM
HSEGTFTSDYSKYK([γGlu-Palmitoyl])DSRRAQDFVQWLV[PEG4′] [g515]	0.1 nM
HSQGTFTSDYSKYLDK([γGlu-Palmitoyl])RRAQDFVQWLV[PEG4′] [g424]	0.4 nM
HSQGTFTSDYSKYLDSRK([γGlu-Palmitoyl])AQDFVQWLV[PEG4′] [g422]	0.2 nM
HGQGTFTSDYSKYLDSEK([γGlu-Palmitoyl])ARDFVAWLV[PEG4′] [g735]	0.8 nM
HSQGTFTSDYSKYLDSRRAQDFVQWLV (C-terminal 11-aminoundecanoic acid (Aud)) [g358]	3.2 nM
HSQGTFTSDYSXYLDSRRAQDFVQWLV (not fully specified; K(PEG4-palm) at 12; C-terminal PEG4) [g417]	0.02 nM
HSQGTFTSDYSKYKDSRRAQDFVQWLV[PEG4′] (not fully specified (residue 14); printed as HSQGTFTSDYSKYB1DSRRAQDFVQWLVZ4) [g427]	0.004 nM
HSQGTFTSDYSKYLDKRRAQDFVQWLV[PEG4′] (not fully specified (residue 16); printed as HSQGTFTSDYSKYLDB1RRAQDFVQWLVZ4) [g425]	0.008 nM
HSQGTFTSDYSKYLDK([PEG4′-Palmitoyl])SRARDFVAWLV[PEG4′] [g972]	0.03 nM
HSQGTFTSDYSKYLDSRKAQDFVQWLV[PEG4′] (not fully specified (residue 18); printed as HSQGTFTSDYSKYLDSRB1AQDFVQWLVZ4) [g423]	0.01 nM
HSQGTFTSDYSKYLDSRRAXDFVQWLV (K(PEG4-palm) at 20; C-terminal PEG4) [g457]	0.03 nM
HSQGTFTSDYSKYLDSK([γGlu-Palmitoyl])RAQRDFVAWLV[PEG12′] (not fully specified; printed as HSQGTFTSDYSKYLDSBRAQRDFVAWLVZ12) [g828]	0.04 nM
HSQGTFTSDYSRYLDSK([γGlu-Palmitoyl])RARDFVAWLV[PEG4′] [g827]	0.2 nM
HGQGTFTSDYSKYLESK([γGlu-Palmitoyl])RAQDFVQWLV[PEG4′] [g498]	0.6 nM
HGQGTFTSDYSEYLDSK([γGlu-Palmitoyl])RAQDFVQWLV[PEG4′] [g695]	0.2 nM
HGQGTFTSDYSKYLDSK([γGlu-Palmitoyl])RAEDFVQWLV[PEG4′] [g693]	0.1 nM
HGQGTFTSDYSKYLDSK([γGlu-Palmitoyl])RAQDFVEWLV[PEG4′] [g694]	0.07 nM
